For test [1], the target named is T1, SARS-CoV2 Spike ecto foldon Trimer expressed with a C-terminal myc-myc-hexahistidine (SARS-CoV-2, UniProt P0DTC2 14-1213).
T1 construct: extracellular domain
Nature of the test: SPR Biacore, mAb captured by anti-hFc, 37C. For orientation: Surface plasmon resonance follows binding to a sensor surface in real time, without labels.

Test [2] concerns the target T1, SARS-CoV2 Spike ecto foldon Trimer …. As to the kind of experiment: SPR Biacore, mAb captured by anti-hFc, 25C.

We go through 14 molecules from patent US20260069689A1 (Regeneron, published 2026).

Positions count from the first letter of the chain named.

B1: mAb14257 (antibody, V domains shown)
VH: EVQLVESGGGLVQPGGSLRLSCAASGFTVSRSYMNWVRQAPGKGLEWVSVVFTGGTTKHTDSVKGRFTISRDNSMNTLYLQMNSLRPEDTAVYYCARVAIVETTGAFDIWGQGTMVTVSS
VL: QSVLTQPPSVSGAPGQRVTISCTGTSSNIGADFDVHWYQQFPGTAPKLLIYGHTNRPSGIPDRFSGSKSGTSASLAITGLQAEDEADYYCQSYDSSLSGSVVFGGGTKLTVLG
One may read the Kd as the concentration at which binding is half-saturated. The low end stands for a tighter complex, the high end for a looser complex. A word on the koff: it is the rate constant with which the complex falls apart. A word on the kon: it is the rate constant with which the complex forms. A low value points to slower complex formation. One may read the t½ as how long it takes for the measured level to halve. Lower therefore signals fast loss. Take B1: in test [1], the equilibrium dissociation constant (Kd) was determined as 0.141 nM, the koff is 0.000165 s⁻¹, the kon is 1.17e+06 M⁻¹ s⁻¹ and the t½ was determined as 1.17 h. In test [2], the Kd is 0.0434 nM, the koff amounted to 0.000107 s⁻¹, the kon worked out at 2.45e+06 M⁻¹ s⁻¹ and the t½ came out at 1.81 h.

B2: mAb14235 (antibody, V domains shown)
VH: QITLKESGPTLVKPTQTLTLTCTFSGFSLNTGGVGVGWIRQPPGNALEWLALIYWDDDKRYNPSLKTRLTISKDTSKNQVVLTMTNMDPVDTATYFCAHLTIAVIVDFWGQGTLVTVSS
VL: QSALTQPASVSGSPGQSITISCTATSSDVGTYNYVSWFQHHPGKAPKLMIYEVTNRPSGVSNRFSGSKSGNTASLTISGLQAEDEADYYCSSYTTTSIVFGGGTKLTVLG
In test [1], B2 had a Kd of 0.0517 nM, a koff of 3.8e-05 s⁻¹, a kon of 735000 M⁻¹ s⁻¹ and a t½ of 5.07 h. Also, in test [2], the Kd is 0.0474 nM, the koff came to 3.69e-05 s⁻¹, the kon stood at 779000 M⁻¹ s⁻¹ and the t½ worked out at 5.21 h.

B3: mAb14289 (antibody, V domains shown)
VH: QVQLVQSGPEVKKPGASVKVSCKASGYTFTSYAISWVRQAPGQGLEWMGWISAYNGNTNYAQKLQGRVTMTTDTFTSTAYMELRSLRSDDTAVYYCAVPADHITFDYWGQGTLVTVSS
VL: EIVLTQSPGTLSLSPGERATLSCRASQSVSSYLAWYQQKPGQAPRLLIHGASSRATGIPDRFSGSGSGTDFTLTISRLEPEDFAVYYCQQYGSSFLTFGGGTKVEIKR
In test [1], B3 yielded a Kd of 0.0728 nM, a koff of 6.63e-05 s⁻¹, a kon of 911000 M⁻¹ s⁻¹ and a t½ of 2.91 h. In test [2], the Kd came out at 0.0696 nM, the koff is 6.35e-05 s⁻¹, the on-rate (kon) was 912000 M⁻¹ s⁻¹ and the t½ was 3.03 h.

B4: mAb14294 (antibody, V domains shown)
VH: EVQLVESGGGLVQPGGSLRLSCAASGFTFSNHWMDWVRQAPGKGLVWVSRINSDGSSTDYADSVRGRFTMSRDNAKNTLYLQMSSLRAEDTAVYYCAREGMIFGAVIIPGWYFDLWGRGALVTVSS
VL: EIVLTQSPGTLSLSPGERATLSCRASQSVSSSQLAWYQQKPGQAPRLLIYGASSRATGIPDRFSGSGSGTDFTLTISRLEPEDFAVYYCQQYDSFGQGTKLEIKR
In test [1], B4 yielded a Kd of 0.033 nM, a koff of 2.29e-05 s⁻¹, a kon of 694000 M⁻¹ s⁻¹ and a t½ of 8.4 h. In test [2], this molecule displayed a Kd of 0.0329 nM, a koff of 2.29e-05 s⁻¹, a kon of 697000 M⁻¹ s⁻¹ and a t½ of 8.39 h.

B5: mAb14255 (antibody, V domains shown)
VH: QVQLQESGPGLVKPSETLSLTCTVSGGSISGYYWSWIRQPPGKGLDWIGYIYYRGNTNYNPSLKSRVTISVDTSNNQFSLKLSSVTAADTAVYYCARYGEGYGDASGYHFDYWGQGTLVTVSS
VL: QSALTQPASVSGSPGQSITISCTGTSSDVGSYNLVSWYQQHPGKAPKLMIYEDSKRPSGVANPFSGSKSGNTASLTISGLQAEDEADYYCSSYAGSSTWVFGGGTKLTVLG
In test [1], B5 displayed a Kd of 0.155 nM, a koff of 0.000161 s⁻¹, a kon of 1.03e+06 M⁻¹ s⁻¹ and a t½ of 1.2 h. In test [2], the dissociation constant (Kd) stood at 0.0706 nM, the koff came out at 0.000138 s⁻¹, the kon was found to be 1.96e+06 M⁻¹ s⁻¹ and the t½ came to 1.39 h.

B6: mAb14247 (antibody, V domains shown)
VH: QITLKESGPTLVKPTQTLTLTCTFSGFSLSTSAVGVGWIRQPPGKALEWLALIYWDDDKRYSPSLKSRLTITKDTSKNQLVLTMTNVDPVDTATYYCAHHTIQLIFDYWGQGTLVTVSS
VL: QSALTQPASVSGSPGQSITISCTATSSDVGNYNYVSWYQQHPGKAPKLMIYEVSNRPSGVSNRFSGSKSGNTASLTISGLQAEDEADYYCSSYTSSSTPLVFGGGTKLTVLG
As to B6, in test [1], the Kd stood at 0.0701 nM, the koff was 4.72e-05 s⁻¹, the kon turned out to be 674000 M⁻¹ s⁻¹ and the t½ was 4.08 h. Also, in test [2], the Kd was 0.0521 nM, the koff was 4.91e-05 s⁻¹, the kon is 944000 M⁻¹ s⁻¹ and the t½ was 3.92 h.

B7: mAb13458 (antibody, V domains shown)
VH: EVQLVESGGGLVQPGRSLRLSCAASGFTFDDYAMHWVRQAPGKGLEWVSGISWNSGSIGYADSVKGRFTISRDNAKNSLYLQMNSLRAEDTALYYCAKDIGITTPYWGQGTLVTVSS
VL: AIQMTQSPSSLSASVGDRVTITCRASQDIRNDLGWYQQKPGKAPKLLIYSASSLQTGVPSRFSGSGSGTDFTLTISSLHPEDFATYYCLQDYWYTWTFGQGTKVEIKR
In test [1], B7 gave a Kd of 0.05 nM, a koff of 4.08e-05 s⁻¹, a kon of 815000 M⁻¹ s⁻¹ and a t½ of 4.72 h. In test [2], this molecule returned a Kd of 0.0351 nM, a koff of 4.26e-05 s⁻¹, a kon of 1.21e+06 M⁻¹ s⁻¹ and a t½ of 4.52 h.

B8: mAb13457 (antibody, V domains shown)
VH: B7 VH
VL: B7 VL with W93D
As for B8, in test [1], binding was put at a Kd of 0.0779 nM and the t½ was 3.22 h. In test [2], this molecule came in with a Kd of 0.0718 nM and a t½ of 3.49 h.

B9: mAb13459 (antibody, V domains shown)
VH: B7 VH
VL: B7 VL with W93N, T95V
For B9, in test [1], the Kd turned out to be 0.0599 nM, the koff was found to be 4.76e-05 s⁻¹, the kon worked out at 794000 M⁻¹ s⁻¹ and the t½ was found to be 4.05 h. In test [2], the Kd amounted to 0.0389 nM, the koff was 5.46e-05 s⁻¹, the kon is 1.41e+06 M⁻¹ s⁻¹ and the t½ amounted to 3.52 h.

B10: mAb14315 (antibody, V domains shown)
VH: QVQLVQSGAEVKKPGSSVKVSCKASGDTFSTYAINWVRQAPGQGLEWMGRFIHIFGTANYAQKFQGRVTITADESTSTAYMELRSLRSEDTAVYYCARDGVDYGDYRPDYWGQGTLVTVSS
VL: EIVLTQSPGTLSLSPGERATLSCRASQSVSSNYLAWYQQKPGQAPRLLIYGASSRATGIPERFSGSGSGTDFTLTISRLEPEDFAVYYCQQYGSSLYTFGQGTKLEIKR
In test [1], B10 came in with a Kd of 0.0437 nM, a koff of 3.25e-05 s⁻¹, a kon of 743000 M⁻¹ s⁻¹ and a t½ of 5.93 h. In test [2], this molecule yielded a Kd of 0.0483 nM, a koff of 3.15e-05 s⁻¹, a kon of 652000 M⁻¹ s⁻¹ and a t½ of 6.1 h.

B11: mAb14313 (antibody, V domains shown)
VH: EVQLVESGGGLVQPGRSLRLSCVASGFTFDDSAMHWVRQPPGKGLEWVSGISWNSGIIGYAESVKGRFIISRDNAKNSLFLHMRGLRPEDTAVYYCARDRLELSYYYYGMDVWGQGTTVTVSS
VL: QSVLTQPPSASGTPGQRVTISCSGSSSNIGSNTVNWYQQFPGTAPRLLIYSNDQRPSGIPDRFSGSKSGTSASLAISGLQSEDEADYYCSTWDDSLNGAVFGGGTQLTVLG
In test [1], B11 gave a Kd of 0.0984 nM, a koff of 9.94e-05 s⁻¹, a kon of 1.01e+06 M⁻¹ s⁻¹ and a t½ of 1.94 h. Further, in test [2], binding was put at a Kd of 0.0565 nM, the koff turned out to be 0.000113 s⁻¹, the kon is 2e+06 M⁻¹ s⁻¹ and the t½ was 1.7 h.

B12: mAb14283 (antibody, V domains shown)
VH: QVQLQESGPGLVKPSGTLSLTCDVSGGSISSNNWWSWVRQRPGKGLQWIGEIYHNENTNYNPSLKSRVIMSIDKSKNQFSLKLTSVTAADTAVYYCARGDVLDWFDPWGQGTLVTVSS
VL: QSALTQPASVSGSPGQSTTISCTGTSSDVGGYNYVSWYQQYPGKAPKLMIYDVTNRPSGVSHRFSGSKSGNTASLTISGLQAEDEADYYCSSYTSSSTVIFGGGTKLTVLG
On to B12, for which, in test [1], binding was put at a Kd of 0.0847 nM, the koff is 7.32e-05 s⁻¹, the kon came out at 865000 M⁻¹ s⁻¹ and the t½ amounted to 2.63 h. For the same molecule, in test [2], the affinity, expressed as Kd, was 0.0539 nM; the koff amounted to 8.66e-05 s⁻¹; the kon came out at 1.61e+06 M⁻¹ s⁻¹; the t½ stood at 2.22 h.

B13: mAb14286 (antibody, V domains shown)
VH: QVQLVQSGAEVKKPGASVKVSCKASGYTFTDYFIHWVRQAPGQGLEWMGWINPTSGGTNYAQKFRGRVTMTRDTSISTAYVELSRLRSDDTALYYCARDLPFYSDTKQFDYWGQGTLVTVSS
VL: B12 VL with S13Y, T18I, Y41H, Y51F, T54S, H62N, I77F, V99L, I100V
In test [1], B13 came in with a Kd of 0.0544 nM, a koff of 0.000141 s⁻¹, a kon of 2.59e+06 M⁻¹ s⁻¹ and a t½ of 1.37 h. Also, in test [2], binding was characterised by a dissociation constant (Kd) of 0.0331 nM, the koff is 8.71e-05 s⁻¹, the kon was determined as 2.63e+06 M⁻¹ s⁻¹ and the t½ worked out at 2.21 h.

B14: mAb14258 (antibody, V domains shown)
VH: QLQLQESGPGLVKPSETLSLICTGSGDSISSSHYYWGWIRQPPGKGLEWIGSTYFSGSTYYNPSLKSRVSISVDTSKNQVSLKLISVTAADTAVYYCAREMGATLGDYWGPGTLVTVSS
VL: QSVLTQPPSASGTPGQRVTISCSGSSSNIGNNYVYWYQQFPGTTPRLLIYRNNERPSGVPDRFSGSKSGTSASLVISGLRSEDEADYYCAAWDDSLSAHYVFGTGTKVTVLG
In test [1], B14 gave an equilibrium dissociation constant (Kd) of 0.0776 nM, a koff of 7.93e-05 s⁻¹, a kon of 1.02e+06 M⁻¹ s⁻¹ and a t½ of 2.43 h. Besides, in test [2], the affinity, expressed as Kd, was 0.0232 nM; the koff worked out at 4.91e-05 s⁻¹; the kon was 2.12e+06 M⁻¹ s⁻¹; the t½ was found to be 3.92 h.
